Data: US12708677B2, “Contrast agents, methods for preparing contrast agents, and methods of imaging” (Georgia State University Research Foundation, Inc., priority 2008, dated 2026)

How the values were obtained:
[1] = In vitro r1 and r2 proton relaxivity; assay type: physicochemical; settings: 3.0 T; 50 μM designed agents, 100 μM Gd-DTPA
[2] = mouse, in vivo
Protocol: Blood Circulation Time, Tissue Retention Time, and Bio-distribution. CD-1 mice (25-30 g, a group of four mice were tested) were anesthetized with isoflurane. Appropriate dosages of Gd-CA1.CD2 or Gd-DTPA were i.v. injected (via tail vein). Blood (~50 μl) samples were collected via orbital sinus of the mouse at different time points. The mouse was euthanized at the final time point. Tissue samples from kidney, liver, heart, and lung, were collected. Serum samples were prepared from the collected blood. For the bio-distribution analyses, the animals were euthanized at single time point (indicated) after i.v. administration of the contrast agent (indicated). The organ/tissue samples were collected. Tissue extracts were freshly made from collected samples using commercially available tissue extracting kits (Qiagen). CA1.CD2 was detected and quantified by immunoblotting and Sandwich-ELISA using a monoclonal antibody (OX45, detecting antibody) and a home made polyclonal antibody (PabCD2, capture antibody). A series of known amounts of CA1.CD2 samples mixed with blank mouse scrum or tissue extracts were used as standard in Sandwich-ELISA. ELISA signal from HRP was monitored using a Fluorstar fluorescence microplate reader. For quantification of Gd^3+ in the serum and tissue samples one hour (or indicated times) after the contrast agent administration, animals were sacrificed and critical organs were collected, and the tissues were then digested with concentrated nitric acid at 120-130° C. with proper amount of ^157Gd spike as an internal marker. The digested solution was analyzed by ICP-MS (Element 2) using an isotope dilution method.
CD-1 mice (25-30 g) were anesthetized with isoflurane. Appropriate dosages of Gd-CA1.CD2 and its PEgylated variants (with Gd and ^153Gd) or Gd-DTPA were i.v. injected (via tail vein). Blood (~50 μl) samples were collected via orbital sinus of the mouse at different time points. The mouse was euthanized at the final time point. Tissue samples from kidney, liver, heart, and lung were collected. Serum samples were prepared from the collected blood. For the bio-distribution analyses, the animals were euthanized at single time point (indicated) after i.v. administration of the contrast agent (indicated). The organ/tissue samples were collected. Tissue extracts were freshly made from collected samples using commercially available tissue extracting kits (Qiagen). CA1.CD2 and its variants were detected and quantified by immunoblotting and Sandwich-ELISA using a monoclonal antibody (OX45, detecting antibody) and a home made polyclonal antibody (PabCD2, capture antibody). A series of known amounts of CA1.CD2 samples mixed with blank mouse serum or tissue extracts were used as standard in Sandwich-ELISA. ELISA signal from HRP was monitored using a Fluorstar fluorescence microplate reader. For quantification of Gd^3+ in the serum and tissue samples one hour (or indicated times) after the contrast agent administration, animals were sacrificed and critical organs were collected, and the tissues were then digested with concentrated nitric acid at 120-130° ° C. with proper amount of ^153Gd spike as an internal marker. The digested solution was analyzed.

[3] = tested on: rabbits; test: Immunogenicity in rabbits, ELISA and immunoblotting; assay type: in vivo, rabbit
Protocol: FIG. 2.7: Illustrates ELISA (left) or western blot (right) analyses of antibody produced in rabbit serum after i.p. injection of […] of protein CA1.CD2 or PEGylated CA1.CD2 (PEGCA1.CD2). In (left), Pre is the serum from pre-bleeding before antigen injection. CA1.CD2 was mixed with adjuvant (CA1.CD2+Ad) or with buffer saline (CA1.CD2+Sal) before injection. PabCD2 is the anti-serum from rabbits produced by a commercial source use CD2 as antigen. The open bars are the first bleed after first injection. The gray bars are the second bleed after second injection. The rabbit blood was taken 3 weeks after each injection. The error bars are standard deviations of four measurements. In (right), Western blots were performed with anti-serum (1st bleed) from rabbits that were injected; CA1.CD2 mixed with buffered saline (left panel, CA1.CD2+Sal), CA1.CD2 mixed with adjuvant (middle panel, CA1.CD2+Ad), and the PEGylated CA1.CD2 (right panel, PEG-CA1.CD2). The Western blots experiments were carried out with 0.5 mg of PEGylated CA1.CD2 (PEG-CA1.CD2) or unmodified CA1.CD2 (CA1.CD2). Arrow indicates the position of the detected protein bands 19 hours post injection.
Rabbits were i.p. injected with Gd-CA1.CD2 and its pegylated variants. The agents (CA1.CD2) were mixed with adjuvant or with buffer saline and injected at a dose of 3.0 nmole/kg according to the standard protocol for the antibody production. […]

[4] = tested on: AU565; test: MR imaging of cancer cell pellets; assay type: cell-based
Protocol: (§1) To test whether our designed proteins are applicable for targeted imaging, we carried out MR imaging of cancer cells that were incubated with the designed protein contrast agents Gd-CA1-Affi using four different cancer cell lines with different expression levels of HER2. […] The MR image contrast enhancements from the contrast agent can be correlated to the HER2 levels.

[5] = tested on: SKOV3; test: MR imaging of cancer cell pellets; assay type: cell-based
Protocol: as §1

| Molecule | contrast enhancement in T1 weighted imaging of samples [1] | time first detectable in the kidney [2] [min] | time of peak in the kidney [2] [h] | injected dose remaining in the kidney ([2]; 15 h) | time of sharp decrease in blood concentration of Gd^3+ and CA1.CD2 ([2]; iv) | antibody production ([3]; with adjuvant) | antibody production ([3]; without adjuvant, double dose immunization, 3.0 nmole/kg i.p.) | time remaining in blood circulation [2] | time without significant decrease in CA1.CD2 levels in blood ([2]; iv) [min] | MR image of AU565 cell pellets [4] | MR image of SKOV3 cell pellets [5] |
| --- | --- | --- | --- | --- | --- | --- | --- | --- | --- | --- | --- |
| CA1.CD2: designed Gd^3+-binding protein, domain 1 of rat CD2 with ligand residues Glu15, Glu56, Asp58, Asp62, Asp64 (protein) RDSGTVWGALGHGIELNIPNFQMTDDIDEVRWERGSTLVAEFKRKMKPFLKSGAFEIDANGDLDIKNLTRDDSGTYNVTVYSTNGTRILNKALDLRILE | did not lead to significant enhancement | 15 | 4 to 5 | less than 10% | about 50 minutes | resulted in immuno-responses | did not lead to antibody production |  |  |  |  |
| Gd-CA1.CD2: CA1.CD2 in complex with Gd^3+ (protein) RDSGTVWGALGHGIELNIPNFQMTDDIDEVRWERGSTLVAEFKRKMKPFLKSGAFEIDANGDLDIKNLTRDDSGTYNVTVYSTNGTRILNKALDLRILE | able to introduce contrast enhancement |  |  |  |  |  |  | more than 3 hours | 45 | no significant changes in MR image | no significant changes in MR image |
